Source: the supplement of paper PMC7877785
± gives the uncertainty stated by the source.

Experiment: self-splicing fitness, log relative to wild type (ln ratio); higher = more splicing; Tetrahymena group I intron in knt gene, E. coli kanamycin selection, DiMSum; sequences stand for … in CUCUCU…GGAGGGAAAAGUUAUCAGGCAUGCACCUGGUAGCUAGUCUUUAAACCAAUAGAUUGCAUCGGUUUAAAAGGCAAGACCGUCAAAUUGCGGGAAAGGGGUCAACAGCCGUUCAGUACCAAGUCUCAGGGGAAACUUUGAGAUGGCCUUGCAAAGGGUAUGGUAAUAAGCUGACGGACAUGGUCCUAACCACGCAGCCAAGUCCUAAGUCAACAGAUCUUCUGUUGAUAUGGAUGCAGUUCACAGACUAAAUGUCGGUCGGGGAAGAUGUAUUCUUCUCAUAAGAUAUAGUCGGACCUCUCCUUAAUGGGAGCUAGCGGAUGAAGUGAUGCAACACUGGAGCCGCUGGGAACUAAUUUGUAUGCGAAAGUAUAUUGAUUAGUUUUGGAGUACUCGUGGUCG
Outline: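 Pooled colonies went to amplicon sequencing on an Illumina HiSeq 2500 after six replicate transformations. The plates were LB agar with 100 μg/mL carbenicillin, 50 μM IPTG and 0.2% rhamnose, with or without 25 μg/mL kanamycin, incubated overnight at 37°C or 30°C. The E. coli BL21(DE3) library had all eight P1ex-region intron nucleotides randomised, the intron placed in the knt kanamycin-resistance gene on pET-22b(+). DiMSum fitness is the error-weighted combination of replicate fold changes, kanamycin against none, normalised to wild type.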

| Sequence | self-splicing fitness (ln) (30 °C) | self-splicing fitness (ln) (37 °C) |
| --- | --- | --- |
| GUUGAGCAAUAUUACGGCGA | -2.81 ± 0.23 | -2.44 ± 0.2 |
| CAAUAGCAAUAUUACGAGUG | -0.279 ± 0.079 | -0.905 ± 0.11 |
| UUUGAGCAAUAUUACGGGAA | -2.02 ± 0.39 | -2.22 ± 0.32 |
| ACGGAGCAAUAUUACGGAGU | -2.53 ± 0.27 | -1.55 ± 0.18 |
| CGACAGCAAUAUUACGAGGA | -3.91 ± 0.2 | -2.53 ± 0.18 |
| ACUGAGCAAUAUUACGUUGU | -3.71 ± 0.26 | -1.53 ± 0.14 |
| GACUAGCAAUAUUACGGCCG | -0.632 ± 0.13 | -0.578 ± 0.16 |
| CAUCAGCAAUAUUACGAGCG | -0.443 ± 0.059 | 0.466 ± 0.072 |
| GGACAGCAAUAUUACGAUGC | 0.225 ± 0.075 | 0.446 ± 0.09 |
| AGCCAGCAAUAUUACGCGCU | -3.07 ± 0.24 | -2.15 ± 0.25 |
| UCUAAGCAAUAUUACGUCUU | -4.03 ± 0.27 | -4.18 ± 0.46 |
| UGAAAGCAAUAUUACGUCGC | -3.49 ± 0.23 | -2.98 ± 0.32 |
| GGUCAGCAAUAUUACGUGCA | 0.0844 ± 0.11 | 0.539 ± 0.15 |
| CCAUAGCAAUAUUACGAGUU | -3.76 ± 0.36 | -2.1 ± 0.31 |
| AGGAAGCAAUAUUACGUAUG | -2.39 ± 0.14 | -2.3 ± 0.16 |
| ACGUAGCAAUAUUACGAGUC | -3.3 ± 0.4 | -3.2 ± 0.35 |
| CACGAGCAAUAUUACGAAGG | -3.2 ± 0.19 | -2.01 ± 0.26 |
| CUUCAGCAAUAUUACGACAU | -3.599 ± 0.023 | -2.28 ± 0.036 |
| UGCUAGCAAUAUUACGCUUA | -1.31 ± 0.11 | -0.517 ± 0.12 |

| Sequence | self-splicing fitness (ln) (30 °C) | self-splicing fitness (ln) (37 °C) |
| --- | --- | --- |
| GUCUAGCAAUAUUACGACUG | -2.39 ± 0.23 | -2.73 ± 0.31 |
| GGGCAGCAAUAUUACGCAUA | -1 ± 0.092 | 0.38 ± 0.13 |
| UGAUAGCAAUAUUACGGUGC | -2.98 ± 0.35 |  |
| AAUCAGCAAUAUUACGUCUU | 0.123 ± 0.06 | 0.106 ± 0.079 |
| CCCGAGCAAUAUUACGCACA | -2.87 ± 0.27 | -1.68 ± 0.32 |
| UACAAGCAAUAUUACGUUUU | -3.05 ± 0.11 | -2.32 ± 0.12 |
| GGCAAGCAAUAUUACGAAGG | -3.36 ± 0.17 | -2.05 ± 0.19 |
| GACGAGCAAUAUUACGCAAC | -2.11 ± 0.29 | -2.31 ± 0.42 |
| GAAUAGCAAUAUUACGUGUC | -3.72 ± 0.27 | -2.58 ± 0.14 |
| GUAGAGCAAUAUUACGCAUG | -1.94 ± 0.13 | -0.699 ± 0.19 |
| CUCGAGCAAUAUUACGGUGG | -2.25 ± 0.13 | -1.75 ± 0.17 |
| CAAAAGCAAUAUUACGCGUU | -3.91 ± 0.17 | -2.74 ± 0.13 |
| CGCAAGCAAUAUUACGGGAU | -4.29 ± 0.26 | -2.95 ± 0.23 |
| UGUAAGCAAUAUUACGAUCG | 0.587 ± 0.097 | -0.129 ± 0.11 |
| CGUGAGCAAUAUUACGACUA | -2.94 ± 0.47 | -1.94 ± 0.36 |
| AUUAAGCAAUAUUACGGGGU | -4.11 ± 0.24 | -2.83 ± 0.2 |
| GGGCAGCAAUAUUACGAAAC | -0.715 ± 0.3 | -0.594 ± 0.28 |
| AAUCAGCAAUAUUACGGUGA | -0.138 ± 0.076 | 0.345 ± 0.087 |
